Consider 13 molecules from US20240024426A1, “HYPOTENSIVE PHARMACEUTICAL COMPOSITION COMPRISING TRIPLE ACTIVATOR HAVING ACTIVITY FOR ALL OF GLUCAGON, GLP-1, AND GIP RECEPTORS” (HANMI PHARM. CO., LTD., priority 2020, published 2024).

To fix the notation:
T1: human GIP receptor (human, UniProt P48546 22-466)
T1 sequence (looked up): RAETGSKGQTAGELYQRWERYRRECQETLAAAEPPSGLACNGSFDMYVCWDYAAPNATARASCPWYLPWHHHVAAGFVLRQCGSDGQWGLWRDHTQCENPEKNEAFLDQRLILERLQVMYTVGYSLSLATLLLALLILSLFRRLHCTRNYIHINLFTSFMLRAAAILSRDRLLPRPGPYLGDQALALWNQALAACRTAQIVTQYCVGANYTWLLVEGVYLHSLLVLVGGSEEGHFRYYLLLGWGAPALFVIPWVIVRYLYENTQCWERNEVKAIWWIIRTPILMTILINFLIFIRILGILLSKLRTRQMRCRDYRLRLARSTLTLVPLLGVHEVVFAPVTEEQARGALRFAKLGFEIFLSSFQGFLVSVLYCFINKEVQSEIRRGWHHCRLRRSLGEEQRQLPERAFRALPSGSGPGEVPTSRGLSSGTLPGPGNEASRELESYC

Bridges are numbered along the chain shown (N, C = ends). Where no end group is shown, it is not given here. [ ]: non-standard residue; d: D form. The star is where a group is joined. Acetyl(2-(4-imidazolyl)) = O=C(Cc1c[nH]cn1)*; Aib = CC(C)(N)C(=O)O Bounds are passed on as bounds.

For one test, the target named is T1, human GIP receptor. The test can be described thus: cell-based or functional assay.
As for H[Aib]QGTFTSDVSKYLDGQAAKEFVAWLLKGC [Triple agonist of SEQ ID NO: 7], the “In vitro activity compared with native peptide (%) vs. GIP” value (shortened to “In vitro activity … (%) vs. GIP”) was less than 0.1%.

Consider Y[Aib]QGTFTSDYSKCLDEKRAKDFVQWLLDHHPSSGQPPPS (bridge 16-20) [Triple agonist of SEQ ID NO: 70], for which the “In vitro activity … (%) vs. GIP” value was 64.4%.

Regarding {Acetyl(2-(4-imidazolyl))}-[Aib]QGTFTSDYSIAMDEIACKDFVNWLLNTK (bridge 15-19) [Triple agonist of SEQ ID NO: 61], the “In vitro activity … (%) vs. GIP” value worked out at 2.8%.

Turning to Y[Aib]QGTFTSDYSKYLDECAAKDFVQWLLDHHPSSGQPPPS (also: ring formation, positions not given here) [Triple agonist of SEQ ID NO: 67], the “In vitro activity … (%) vs. GIP” value turned out to be 39.8%.

Regarding H[Aib]EGTFTSDYSIAMDEIHQKDFVNWLLAQKC (bridge 16-20) [Triple agonist of SEQ ID NO: 79], the “In vitro activity … (%) vs. GIP” value was determined as 1.4%.

Consider Y[Aib]QGTFTSDYSKYLDECRAKDFVQWLLDHHPSSGQPPPS (bridge 16-20) [Triple agonist of SEQ ID NO: 66], for which the “In vitro activity … (%) vs. GIP” value stood at 17.2%.

As for Y[Aib]QGTFTSDYSKYLDECAAKEFVQWLLDHHPSSGQPPPS (bridge 16-20) [Triple agonist of SEQ ID NO: 64], the “In vitro activity … (%) vs. GIP” value worked out at 92.9%.

Consider {Acetyl(2-(4-imidazolyl))}-[Aib]QGTFTSDYSICMDEKHQKDFVNWLLNTK (bridge 15-19) [Triple agonist of SEQ ID NO: 59], for which the “In vitro activity … (%) vs. GIP” value amounted to 4%.

For Y[Aib]QGTFTSDYSKYLDEKRAKDFVQWLLDHHPSSGQPPPSC (bridge 16-20) [Triple agonist of SEQ ID NO: 76], the “In vitro activity … (%) vs. GIP” value worked out at 11.7%.

Y[Aib]QGTFTSDYSKYLDEKAAKEFVQWLLDHHPSSGQPPPSC (bridge 16-20) [Triple agonist of SEQ ID NO: 75]: the “In vitro activity … (%) vs. GIP” value was 18%.

Turning to H[Aib]QGTFTSDYSKYLDEKRQKEFVQWLLDTKC (bridge 16-20) [Triple agonist of SEQ ID NO: 78], the “In vitro activity … (%) vs. GIP” value is 0.12%.

In the case of H[Aib]QGTFTSDYSKYLDEKRQKEFVQWLLNTKC (bridge 16-20) [Triple agonist of SEQ ID NO: 58], the “In vitro activity … (%) vs. GIP” value amounted to 0.2%.

For {Acetyl(2-(4-imidazolyl))}-[Aib]QGTFTSDYSIAMDEKHCKDFVNWLLNTK (bridge 15-19) [Triple agonist of SEQ ID NO: 60], the “In vitro activity … (%) vs. GIP” value came out at 8.2%.

A further test deals with human GCG receptor (human, UniProt P47871 26-477). In words: cell-based or functional assay.
human GCG receptor, sequence (P47871 26-477): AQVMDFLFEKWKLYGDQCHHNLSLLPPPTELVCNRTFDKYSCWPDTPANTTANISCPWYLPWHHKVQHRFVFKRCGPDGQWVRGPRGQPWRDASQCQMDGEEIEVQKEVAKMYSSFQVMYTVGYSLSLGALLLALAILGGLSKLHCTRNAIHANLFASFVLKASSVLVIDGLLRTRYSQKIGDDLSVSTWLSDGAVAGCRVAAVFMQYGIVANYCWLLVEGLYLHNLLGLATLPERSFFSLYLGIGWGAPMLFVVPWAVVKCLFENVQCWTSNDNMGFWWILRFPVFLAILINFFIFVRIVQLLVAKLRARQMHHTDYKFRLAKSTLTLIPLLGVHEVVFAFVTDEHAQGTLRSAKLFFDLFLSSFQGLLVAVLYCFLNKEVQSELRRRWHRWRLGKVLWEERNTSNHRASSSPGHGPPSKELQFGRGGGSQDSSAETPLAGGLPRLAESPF
For H[Aib]QGTFTSDVSKYLDGQAAKEFVAWLLKGC [Triple agonist of SEQ ID NO: 7], the “In vitro activity compared with native peptide (%) vs. Glucagon” value (shortened to “In vitro activity … (%) vs. Glucagon”) is less than 0.1%.

Y[Aib]QGTFTSDYSKCLDEKRAKDFVQWLLDHHPSSGQPPPS (bridge 16-20) [Triple agonist of SEQ ID NO: 70]: the “In vitro activity … (%) vs. Glucagon” value was determined as 71.3%.

Consider {Acetyl(2-(4-imidazolyl))}-[Aib]QGTFTSDYSIAMDEIACKDFVNWLLNTK (bridge 15-19) [Triple agonist of SEQ ID NO: 61], for which the “In vitro activity … (%) vs. Glucagon” value is less than 0.1%.

As to Y[Aib]QGTFTSDYSKYLDECAAKDFVQWLLDHHPSSGQPPPS (also: ring formation, positions not given here) [Triple agonist of SEQ ID NO: 67], the “In vitro activity … (%) vs. Glucagon” value amounted to 46.2%.

In the case of H[Aib]EGTFTSDYSIAMDEIHQKDFVNWLLAQKC (bridge 16-20) [Triple agonist of SEQ ID NO: 79], the “In vitro activity … (%) vs. Glucagon” value is 4.9%.

With Y[Aib]QGTFTSDYSKYLDECRAKDFVQWLLDHHPSSGQPPPS (bridge 16-20) [Triple agonist of SEQ ID NO: 66], the “In vitro activity … (%) vs. Glucagon” value was found to be 172%.

As for Y[Aib]QGTFTSDYSKYLDECAAKEFVQWLLDHHPSSGQPPPS (bridge 16-20) [Triple agonist of SEQ ID NO: 64], the “In vitro activity … (%) vs. Glucagon” value amounted to 60.1%.

In the case of {Acetyl(2-(4-imidazolyl))}-[Aib]QGTFTSDYSICMDEKHQKDFVNWLLNTK (bridge 15-19) [Triple agonist of SEQ ID NO: 59], the “In vitro activity … (%) vs. Glucagon” value is less than 0.1%.

As for Y[Aib]QGTFTSDYSKYLDEKRAKDFVQWLLDHHPSSGQPPPSC (bridge 16-20) [Triple agonist of SEQ ID NO: 76], the “In vitro activity … (%) vs. Glucagon” value amounted to 47.6%.

As for Y[Aib]QGTFTSDYSKYLDEKAAKEFVQWLLDHHPSSGQPPPSC (bridge 16-20) [Triple agonist of SEQ ID NO: 75], the “In vitro activity … (%) vs. Glucagon” value stood at 8.5%.

On to H[Aib]QGTFTSDYSKYLDEKRQKEFVQWLLDTKC (bridge 16-20) [Triple agonist of SEQ ID NO: 78], for which the “In vitro activity … (%) vs. Glucagon” value was determined as 14%.

For H[Aib]QGTFTSDYSKYLDEKRQKEFVQWLLNTKC (bridge 16-20) [Triple agonist of SEQ ID NO: 58], the “In vitro activity … (%) vs. Glucagon” value turned out to be 2.6%.

As for {Acetyl(2-(4-imidazolyl))}-[Aib]QGTFTSDYSIAMDEKHCKDFVNWLLNTK (bridge 15-19) [Triple agonist of SEQ ID NO: 60], the “In vitro activity … (%) vs. Glucagon” value was less than 0.1%.

In another test the target is human GLP-1 receptor (human, UniProt P43220 24-463). The test can be described thus: cell-based or functional assay.
On to H[Aib]QGTFTSDVSKYLDGQAAKEFVAWLLKGC [Triple agonist of SEQ ID NO: 7], for which the “In vitro activity compared with native peptide (%) vs. GLP-1” value (“In vitro activity … (%) vs. GLP-1” below) was found to be 13.7%.

With Y[Aib]QGTFTSDYSKCLDEKRAKDFVQWLLDHHPSSGQPPPS (bridge 16-20) [Triple agonist of SEQ ID NO: 70], the “In vitro activity … (%) vs. GLP-1” value was found to be 15.1%.

For {Acetyl(2-(4-imidazolyl))}-[Aib]QGTFTSDYSIAMDEIACKDFVNWLLNTK (bridge 15-19) [Triple agonist of SEQ ID NO: 61], the “In vitro activity … (%) vs. GLP-1” value is 59.8%.

For the molecule Y[Aib]QGTFTSDYSKYLDECAAKDFVQWLLDHHPSSGQPPPS (also: ring formation, positions not given here) [Triple agonist of SEQ ID NO: 67], the “In vitro activity … (%) vs. GLP-1” value worked out at 28.5%.

With H[Aib]EGTFTSDYSIAMDEIHQKDFVNWLLAQKC (bridge 16-20) [Triple agonist of SEQ ID NO: 79], the “In vitro activity … (%) vs. GLP-1” value was found to be 41.5%.

Take Y[Aib]QGTFTSDYSKYLDECRAKDFVQWLLDHHPSSGQPPPS (bridge 16-20) [Triple agonist of SEQ ID NO: 66]: the “In vitro activity … (%) vs. GLP-1” value came to 15.8%.

As to Y[Aib]QGTFTSDYSKYLDECAAKEFVQWLLDHHPSSGQPPPS (bridge 16-20) [Triple agonist of SEQ ID NO: 64], the “In vitro activity … (%) vs. GLP-1” value was 64.6%.

Take {Acetyl(2-(4-imidazolyl))}-[Aib]QGTFTSDYSICMDEKHQKDFVNWLLNTK (bridge 15-19) [Triple agonist of SEQ ID NO: 59]: the “In vitro activity … (%) vs. GLP-1” value was 40.3%.

Regarding Y[Aib]QGTFTSDYSKYLDEKRAKDFVQWLLDHHPSSGQPPPSC (bridge 16-20) [Triple agonist of SEQ ID NO: 76], the “In vitro activity … (%) vs. GLP-1” value stood at 10.3%.

As to Y[Aib]QGTFTSDYSKYLDEKAAKEFVQWLLDHHPSSGQPPPSC (bridge 16-20) [Triple agonist of SEQ ID NO: 75], the “In vitro activity … (%) vs. GLP-1” value amounted to 35.1%.

Turning to H[Aib]QGTFTSDYSKYLDEKRQKEFVQWLLDTKC (bridge 16-20) [Triple agonist of SEQ ID NO: 78], the “In vitro activity … (%) vs. GLP-1” value amounted to 51%.

For H[Aib]QGTFTSDYSKYLDEKRQKEFVQWLLNTKC (bridge 16-20) [Triple agonist of SEQ ID NO: 58], the “In vitro activity … (%) vs. GLP-1” value is 39.1%.

{Acetyl(2-(4-imidazolyl))}-[Aib]QGTFTSDYSIAMDEKHCKDFVNWLLNTK (bridge 15-19) [Triple agonist of SEQ ID NO: 60]: the “In vitro activity … (%) vs. GLP-1” value was 106%.
